Test results published in US20250368744A1 (CONCEPT TO MEDICINE BIOTECH, published 2025).
Substitutions are numbered along the chain they refer to. Like-named read-outs stand apart in the source and are kept apart here.

T1: human CCR4 (human, UniProt P51679 1-360)
T1 construct: whole, on cells; also called hCCR4
T1 sequence (looked up): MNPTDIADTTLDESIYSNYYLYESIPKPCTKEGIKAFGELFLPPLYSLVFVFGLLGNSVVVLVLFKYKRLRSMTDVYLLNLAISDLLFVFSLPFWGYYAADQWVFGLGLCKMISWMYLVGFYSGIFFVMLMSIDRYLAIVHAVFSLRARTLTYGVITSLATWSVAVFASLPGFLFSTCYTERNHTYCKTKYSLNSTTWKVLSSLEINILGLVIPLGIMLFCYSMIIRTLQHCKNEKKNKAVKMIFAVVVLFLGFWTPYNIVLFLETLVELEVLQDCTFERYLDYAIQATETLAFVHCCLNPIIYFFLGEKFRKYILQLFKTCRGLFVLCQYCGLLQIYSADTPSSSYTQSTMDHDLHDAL

B1: Hu200C9B9-7 NG-NA (antibody, V domains shown)
VH: EVQLVESGGGLVQPGGSLRLSCAASGFSFNTYVMNWVRQAPGKGLEWVARIRTKSNNYATFYVDSVKDRFTISRDDSKNSLYLQMNSLKTEDTAVYYCVSGTITRLGAGLDYWGQGTLVTVSS
VL: DIVMTQSPLSLPVTPGEPASISCRSSKSLLHSNANTYLYWYLQKPGQSPQLLIYRMSNLASGVPDRFSGSGSGTAFTLKISRVEAEDVGVYYCMQHLEYPFTFGGGTKLEIK
notes: humanized, PTM site removed
B2: 4A19 (antibody, V domains shown)
VH: QVQLVQSGAEVKKPGASVKVSCKASGYTFTDSEMHWVRQATGQGLEWMGAIQPETGGTAYNQKFKARVTMTRDTSISTAYMELSSLRSEDTAVYYCARRRRNFDYWGQGTLVTVSS
VL: DIVMTQTPLSLSVTPGQPASISCRSSQSLFHSSGNTYLHWYLQKPGQPPQLLIYKVSNRFSGVPDRFSGSGSGTDFTLKISRVEAEDVGVYYCSQSTHVPFTFGQGTKLEIKR
B3: 163H9D5 (antibody, V domains shown)
VH: EVQLVESGGGLVQPKGSLKLSCAASGFSFNTYAMNWVRQAPGKGLKWVARIRTKSNNYATHYADSVKDRFTLSRDDSESMLYLQMNNLKTEDTAMYYCVGGGYGSSASNAMAYWGQGTSVTVSS
VL: DIVMTQAAPSVPVTPGESVSISCRSSKSLLHSNGNTYLYWFLQRPGQSPQLLIFRMSNLASGVPDRFSGSGSGTAFTLRISRVEAEDVGVYYCMQHLEYPFTFGSGTKLEIK
notes: tested as chimeric mAb
B4: 195H8D10 (antibody, V domains shown)
VH: EVQLVGSGGGLVQPKGSLKLSCAASGFNFNTYVMNWVRQAPGKGLEWVARIRTKSNNYATYYADSVKDRFTISRDDSESKLYLQMNNLKTEDTAMYYCVSGTITRLGGGLDYWGQGTSVTVSS
VL: B3 VL with S28R, F54Y, S105G
notes: tested as chimeric mAb; also called 195H8D10-C
B5: 200C9B9 (antibody, V domains shown)
VH: B1 VH with G15K, R19K, E46N, K78E, S80M, S87N, T90I, V95I, L118S
VL: B3 VL with F54Y, S105G
notes: tested as chimeric mAb; also called 200C9B9-C
B6: 195H8D10-C1 (antibody, V domains shown)
VH: B4 VH
VL: B3 VL with S28R, N33Q, F54Y, S105G
notes: also called 195H8D10 VH with 195H8D10 VL NG-QG
B7: 200C9B9-C1 (antibody, V domains shown)
VH: B1 VH with G15K, R19K, E46N, K78E, S80M, S87N, T90I, V95I, L118S
VL: B3 VL with N33Q, F54Y, S105G
notes: also called 200C9B9 VH with 200C9B9 VL NG-QG

Assays:
[1] = biological target: T2, human C-C motif chemokine receptor 8 (CCR8) (human, UniProt P51685 1-355); assay: cell-based or functional assay
T2 sequence (P51685 whole entry): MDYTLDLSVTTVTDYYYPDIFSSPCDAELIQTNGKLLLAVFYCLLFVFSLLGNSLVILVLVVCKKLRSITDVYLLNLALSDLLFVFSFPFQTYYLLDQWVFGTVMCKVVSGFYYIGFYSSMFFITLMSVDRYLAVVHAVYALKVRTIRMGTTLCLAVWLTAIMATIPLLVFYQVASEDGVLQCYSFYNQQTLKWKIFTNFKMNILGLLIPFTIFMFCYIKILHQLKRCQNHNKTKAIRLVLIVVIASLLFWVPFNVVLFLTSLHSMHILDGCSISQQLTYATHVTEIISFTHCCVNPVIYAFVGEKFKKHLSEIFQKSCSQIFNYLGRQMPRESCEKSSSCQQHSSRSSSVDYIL

[2] = biological target: T2, human C-C motif chemokine receptor 8 …; assay: cell-based or functional assay; remark: listed apart in the source
[3] = biological target: T2, human C-C motif chemokine receptor 8 …; assay: FACS (MFI-PE) on HEK293 hCCR8 cells
[4] = biological target: T2, human C-C motif chemokine receptor 8 …; assay: cell-based or functional assay; remark: listed apart in the source
[5] = biological target: T2, human C-C motif chemokine receptor 8 …; assay: cell-based or functional assay; remark: listed apart in the source
[6] = biological target: T2, human C-C motif chemokine receptor 8 …; assay: FACS (MFI PE) on HEK293 hCCR8 cells
cyno CCR8 [7] = biological target: T3, cyno CCR8 (cynomolgus, UniProt G7NYJ2 1-355); assay: FACS (MFI-PE) on CHO-K1 cyno CCR8 cells; fitted value, the curve stays at the baseline
T3 construct: whole, on cells; also called cynomolgus CCR8 protein
T3 sequence (G7NYJ2 entry or part of it): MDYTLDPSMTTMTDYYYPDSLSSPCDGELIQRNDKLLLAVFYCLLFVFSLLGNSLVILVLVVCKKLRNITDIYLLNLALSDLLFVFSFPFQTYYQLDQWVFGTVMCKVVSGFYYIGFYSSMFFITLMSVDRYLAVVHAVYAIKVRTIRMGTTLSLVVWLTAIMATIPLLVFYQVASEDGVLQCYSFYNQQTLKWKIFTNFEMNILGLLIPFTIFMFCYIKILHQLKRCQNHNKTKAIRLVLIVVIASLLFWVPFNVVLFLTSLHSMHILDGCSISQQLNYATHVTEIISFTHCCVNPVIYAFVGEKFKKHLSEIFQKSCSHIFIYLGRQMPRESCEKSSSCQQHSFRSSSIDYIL
Procedure: (§1) Briefly, HEK293 hCCR8 cell line, CHO-K1 cyno CCR8 cell line or CHO-K1 hCCR4 cell line was first incubated with 5-fold serially diluted and 8 doses with the above 10 chimeric Abs and hlgG1 control starting from 100 nM at 4° C. for 30 mins. After washing by FACS buffer, PE Goat anti-Human IgG Fc Secondary Antibody (eBioscience™, Invitrogen) was added to each well and incubated at 4° C. for 30 mins. Samples were washed twice with FACS buffer. The mean florescence intensity (MFI) of PE was evaluated by MACSQuant Analyzer 16.

[8] = biological target: T2, human C-C motif chemokine receptor 8 …; assay: FACS (MFI-PE) on HEK293 hCCR8 cells; remark: listed apart in the source
Procedure: as §1

[9] = biological target: T2, human C-C motif chemokine receptor 8 …; assay: cell-based or functional assay; remark: listed apart in the source
human CCR4 = biological target: T1, human CCR4; assay: FACS, CHO-K1 hCCR4 cells
Procedure: as §1

[10] = biological target: T2, human C-C motif chemokine receptor 8 …; assay: cell-based or functional assay; remark: listed apart in the source
[11] = biological target: T2, human C-C motif chemokine receptor 8 …; assay: FACS (MFI-PE) on CHO-K1 hCCR8 cells
cyno CCR8 [12] = biological target: T3, cyno CCR8; assay: FACS (MFI-PE) on CHO-K1 cyno CCR8 cells
[13] = biological target: T2, human C-C motif chemokine receptor 8 …; assay: cell-based or functional assay; remark: listed apart in the source
cyno CCR8 [14] = biological target: T3, cyno CCR8; assay: FACS (MFI-PE) on CHO-K1 cyno CCR8 cells; remark: listed apart in the source
Procedure: as §1

[15] = biological target: T2, human C-C motif chemokine receptor 8 …; assay: cell-based or functional assay; remark: listed apart in the source
cyno CCR8 [16] = biological target: T3, cyno CCR8; assay: FACS (MFI-PE) on CHO-K1 cyno CCR8 cells; fitted value, the curve hardly leaves the baseline
cyno CCR8 [17] = biological target: T3, cyno CCR8; assay: FACS (MFI-PE) on CHO-K1 cyno CCR8 cells; fitted value far outside the range tested (up to 100 nM)

Binder	IC50, hCCL1-induced Ca2+ flux (stimulation %), Chem-1 hCCR8 cells [1] [nM]	EC50 [3] [nM]	EC50 [8] [nM]	IC50, hCCL1-induced beta-arrestin recruitment (RLU), CHO-K1 hCCR8 cells [9] [nM]	binding result (human CCR4)	IC50, hCCL1-induced Ca2+ flux (stimulation %), Chem-1 hCCR8 cells [lower graph] [10] [nM]	EC50 [11] [nM]	IC50, hCCL1-induced beta-arrestin recruitment (RLU), CHO-K1 hCCR8 cells [13] [nM]	further results
B1	0.36	0.069	–	–	–	–	–	–	IC50, hCCL1-induced Ca2+ flux (% stimulation), Chem-1 hCCR8 cells [2]: 4.33 nM; IC50, hCCL1-induced beta-arrestin recruitment (% stimulation), CHO-K1 hCCR8 cells [4]: 1.58 nM; IC50 (read off the curve), hCCL1-induced beta-arrestin recruitment (RLU), CHO-K1 hCCR8 cells [5]: ~2 nM; EC50 [6]: 0.15 nM
B2	–	–	–	–	–	–	–	–	IC50, hCCL1-induced Ca2+ flux (% stimulation), Chem-1 hCCR8 cells [2]: 12.9 nM; IC50, hCCL1-induced beta-arrestin recruitment (% stimulation), CHO-K1 hCCR8 cells [4]: 1.68 nM; EC50 [6]: 0.21 nM
B3	–	–	0.107	13.8	no binding (tested: 100 nM (highest concentration tested))	5.77	–	–	EC50 (cyno CCR8 [7]): 29.9 nM; IC50, hCCL1-induced Ca2+ flux (stimulation %), Chem-1 hCCR8 cells [upper graph] [10]: 7.6 nM
B4	0.33	0.041	0.0746	3.48	no binding (tested: 100 nM (highest concentration tested))	1.62	0.211	0.55	EC50 (cyno CCR8 [12]): 0.378 nM; EC50 (cyno CCR8 [14]): 0.37 nM; IC50, hCCL1-induced migration of BaF3 hCCR8 cells (RLU) [cont'd) C] [15]: 0.478 nM
B5	0.55	0.05	0.0741	0.771	no binding (tested: 100 nM (highest concentration tested))	1.89	0.132	0.143	EC50 (cyno CCR8 [12]): 1.53 nM; EC50 (cyno CCR8 [14]): 3.16 nM; IC50, hCCL1-induced beta-arrestin recruitment (RLU), CHO-K1 hCCR8 cells [5]: 3.02 nM; IC50, hCCL1-induced migration of BaF3 hCCR8 cells (RLU) [cont'd) C] [15]: 0.798 nM
B6	–	–	–	–	–	–	0.29	–	EC50 (cyno CCR8 [16]): 68.1 nM
B7	–	–	–	–	–	–	0.399	0.154	EC50 (cyno CCR8 [17]): > 100 nM
